Sequences and labels used below:
T1: Human DLL3 expressed on cells (HEK293T-hDLL3, NCI-H82, SHP-77, MC38-hDLL3) (human, UniProt Q9NYJ7 27-618)
T1 construct: also called DLL3 endogenously expressed on human cells
T1 sequence: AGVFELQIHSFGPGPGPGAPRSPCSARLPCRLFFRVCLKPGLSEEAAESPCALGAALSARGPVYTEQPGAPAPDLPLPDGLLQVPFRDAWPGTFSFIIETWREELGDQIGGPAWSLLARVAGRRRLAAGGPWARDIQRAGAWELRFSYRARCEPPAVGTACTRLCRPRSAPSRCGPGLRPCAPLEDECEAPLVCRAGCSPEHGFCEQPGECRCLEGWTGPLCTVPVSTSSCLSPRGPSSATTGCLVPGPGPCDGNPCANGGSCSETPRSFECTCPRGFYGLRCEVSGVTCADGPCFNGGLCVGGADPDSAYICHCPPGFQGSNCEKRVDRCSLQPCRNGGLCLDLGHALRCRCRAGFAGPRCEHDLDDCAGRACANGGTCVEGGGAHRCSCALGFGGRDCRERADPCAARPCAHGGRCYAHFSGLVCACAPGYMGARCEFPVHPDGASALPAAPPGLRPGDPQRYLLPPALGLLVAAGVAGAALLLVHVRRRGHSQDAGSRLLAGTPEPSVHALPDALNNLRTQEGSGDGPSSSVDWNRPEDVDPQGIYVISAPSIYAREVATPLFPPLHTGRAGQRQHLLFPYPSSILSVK

T2: Cyno DLL3-ECD (extracellular domain of cynomolgus macaque DLL3, residues 27 to 466, Avi-tag, 3C site, Fc knob … (cynomolgus macaque, UniProt A0A2K5WSR1 27-464, biotinylated at the Avi-tag (Example 11)))
T2 construct: range 27-466; also called cyno ECD; cynomolgus monkey DLL3; not shown: Avi-tag, 3C protease recognition site and Fc knob into hole
T2 sequence: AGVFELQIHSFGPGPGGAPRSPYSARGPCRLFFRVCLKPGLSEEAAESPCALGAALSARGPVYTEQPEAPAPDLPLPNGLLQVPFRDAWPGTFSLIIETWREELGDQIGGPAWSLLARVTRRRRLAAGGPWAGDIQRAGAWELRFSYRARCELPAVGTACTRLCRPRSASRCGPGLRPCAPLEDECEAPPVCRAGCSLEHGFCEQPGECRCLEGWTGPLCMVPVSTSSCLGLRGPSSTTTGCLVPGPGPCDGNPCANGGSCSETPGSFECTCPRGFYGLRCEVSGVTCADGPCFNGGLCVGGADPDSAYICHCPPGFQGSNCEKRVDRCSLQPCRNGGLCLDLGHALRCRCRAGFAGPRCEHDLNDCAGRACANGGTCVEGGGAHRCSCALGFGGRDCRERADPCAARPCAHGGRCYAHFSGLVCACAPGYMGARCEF

T3: Dog DLL3-NTD (truncated dog DLL3, N-Terminal Domain, residues 27-189, C-terminal 6xHis and Avi-tag) (dog, UniProt A0A8I3MXZ5 27-188, biotinylated at the Avi-tag)
T3 construct: also called dog NTD; not shown: C-terminal 6xHis and Avi-tag
T3 sequence: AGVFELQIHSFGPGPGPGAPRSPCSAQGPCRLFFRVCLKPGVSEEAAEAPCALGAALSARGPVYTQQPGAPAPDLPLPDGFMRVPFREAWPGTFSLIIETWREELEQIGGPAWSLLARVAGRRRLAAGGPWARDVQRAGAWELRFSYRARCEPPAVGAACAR

T4: Human DLL3-NTD (truncated human DLL3, N-Terminal Domain, residues 27-189, C-terminal 6xHis and Avi-tag) (human, UniProt Q9NYJ7 27-189)
T4 construct: also called hDLL3-NTD; human NTD; not shown: C-terminal 6xHis and Avi-tag
T4 sequence: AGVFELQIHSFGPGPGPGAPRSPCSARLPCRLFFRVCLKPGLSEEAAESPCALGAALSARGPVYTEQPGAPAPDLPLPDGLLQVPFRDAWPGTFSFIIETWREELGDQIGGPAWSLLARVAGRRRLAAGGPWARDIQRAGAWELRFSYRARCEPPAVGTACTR

B1: Non-binding DARPin control comprising SEQ ID NO: 22 (designed binder)
chain: DLGKKLLEAARAGQDDEVRELLKAGADVNAKDKDGYTPLHLAAREGHLEIVEVLLKAGADVNAKDKDGYTPLHLAAREGHLEIVEVLLKAGADVNAQDKSGKTPADLAADAGHEDIAEVLQKAAGSPTPTPTTPTPTPTTPTPTPTGSDLGKKLLEAARAGQDDEVRELLKAGADVNAKDKDGYTPLHLAAREGHLEIVEVLLKAGADVNAKDKDGYTPLHLAAREGHLEIVEVLLKAGADVNAQDKSGKTPADLAADAGHEDIAEVLQKAA
notes: Negative control on NCI-H82 cells; also called control DARPin
B2: High HSA affinity 2D DARPin (SEQ ID NO: 17), Cysteine capped with iodoacetamide (designed binder)
chain: GSDLGKKLLEAARAGQDDEVRELLKAGADVNAKDYFSHTPLHLAARNGHLKIVEVLLKAGADVNAKDFAGKTPLHLAADAGHLEIVEVLLKAGADVNAQDIFGKTPADIAADAGHEDIAEVLQKAAGSPTPTPTTPTPTPTTPTPTPTGSDLGTKLLSAAADGQDDEVRELLQAGADVNAKDLFGYTPLHLAAWRGHLEIVEVLLEAGADVNAKDAAGLTPLHLAAWFGHLEIVEVLLEAGADVNAQDVQGVTPADLAAKEGHEDIAEVLQQAAGSGSC
modifications: free C-terminal Cysteine capped with Iodoacetamide (IAM)
notes: MAM160 with GS at the N-terminus and a Cysteine-containing tag at the C-terminus, without His-tag; also called GS-MAM160-tag
B3: Human DLL3-ECD (recombinant extracellular domain of human DLL3, Examples 11, 17 and 19) (Fc fusion)
chain: AGVFELQIHSFGPGPGPGAPRSPCSARLPCRLFFRVCLKPGLSEEAAESPCALGAALSARGPVYTEQPGAPAPDLPLPDGLLQVPFRDAWPGTFSFIIETWREELGDQIGGPAWSLLARVAGRRRLAAGGPWARDIQRAGAWELRFSYRARCEPPAVGTACTRLCRPRSAPSRCGPGLRPCAPLEDECEAPLVCRAGCSPEHGFCEQPGECRCLEGWTGPLCTVPVSTSSCLSPRGPSSATTGCLVPGPGPCDGNPCANGGSCSETPRSFECTCPRGFYGLRCEVSGVTCADGPCFNGGLCVGGADPDSAYICHCPPGFQGSNCEKRVDRCSLQPCRNGGLCLDLGHALRCRCRAGFAGPRCEHDLDDCAGRACANGGTCVEGGGAHRCSCALGFGGRDCRERADPCAARPCAHGGRCYAHFSGLVCACAPGYMGARCEF
modifications: biotinylated at the Avi-tag where immobilised (Examples 11 and 19)
notes: also called hDLL3-ECD; human ECD; not shown: Avi-tag and Fc knob into hole (order depends on the format)
B4: MAM279 (SEQ ID NO: 11) with a Glycine-Serine (GS) at its N-terminal end and an N-terminal His-tag (SEQ ID NO: 19) (designed binder)
chain: MRGSHHHHHHGSDLGKKLLEAARAGQDDEVRELLKAGADVNAKDYFSHTPLHLAARNGHLKIVEVLLKAGADVNAKDFAGKTPLHLAADAGHLEIVEVLLKAGADVNAQDIFGKTPADIAADAGHEDIAEVLQKAAGSPTPTPTTPTPTPTTPTPTPTGSDLGKKLLAAAAQGQDDEVRELLKAGANVNAKDLFGYTPLHLAAWRGHLEIVEVLLKAGADVNAKDAAGETPLHLAAWFGHLEIVEVLLKAGADVNAQDLQGKTPADLAAKEGHEDIAEVLQKAA
notes: also called unconjugated MAM279

The target of test [1] is T1, Human DLL3 expressed on cells …. As to the kind of experiment: flow cytometry titration on NCI-H82 cells, with HSA. On the technique in general: Flow cytometry measures light scatter and fluorescence of single cells or particles in a stream.
Test [2] addresses T5, human serum albumin (human, UniProt P02768 25-609).
T5 construct: also called HSA
Kind of test: SPR (ProteOn), HSA on chip.

Test [3] concerns the target T5, human serum albumin. Kind of test: SPR (ProteOn), HSA on chip, IAM-capped 2D DARPin as analyte, 1:1 Langmuir fit.
Method: (§4) For SPR analysis, the free Cysteine of the 2D DARPins was capped with Iodoacetamide (IAM). […] Various concentrations of 2D DARPins starting from 2000 nM were applied to immobilized human serum albumin (HSA) or mouse serum albumin (MSA) for on-rate and off-rate measurements.
(§5) The data were generated using a BioRad ProteOn instrument with SPR running buffer (PBS, pH 7.4 containing 0.05% Tween 20®). A HC200M chip (Xantec) was conditioned according to the manufacturer's protocol. […] The data was double referenced (control spot and buffer injection) and fitted to a 1:1 Langmuir model. The obtained SPR traces were used to determine binding parameters.
Test [4] addresses T6, mouse serum albumin (mouse, UniProt P07724 25-608).
T6 construct: also called MSA
As to the kind of experiment: SPR (ProteOn), MSA on chip, IAM-capped 2D DARPin as analyte, 1:1 Langmuir fit.
Method: as §4, §5

The target in test [5] is T5, human serum albumin. Kind of test: SPR, HSA injected (injection 2) over immobilised hDLL3-ECD without conjugate. (SPR reads the build-up and loss of mass on a sensor chip optically.)
Test [6] deals with T2, Cyno DLL3-ECD (extracellular domain of …). As to the kind of experiment: SPR (ProteOn).
Test [7] deals with T3, Dog DLL3-NTD (truncated dog DLL3, …). Kind of test: SPR (ProteOn).
Test [8] concerns the target T5, human serum albumin. As to the kind of experiment: SPR (ProteOn), HSA on chip, DARPin as analyte, 1:1 Langmuir fit. As to the method:
(§1) SPR multi-trace analyses were performed similarly as described in previous Examples.
(§2) All analytes (3-fold dilution ranging from 600-7.41 nM) were injected in succession for 240 s and dissociation was recorded for 600 s using a constant flow of 25 μl/min (HSA) or 100 μl/min (MSA) (25 μl/min).

Test [9] has as its target T6, mouse serum albumin. Kind of test: SPR (ProteOn), MSA on chip, DARPin as analyte, 1:1 Langmuir fit. As to the method: as §1, §2
For test [10], the target named is T3, Dog DLL3-NTD (truncated dog DLL3, …). As to the kind of experiment: SPR (ProteOn), biotinylated dog DLL3-NTD on chip, DARPin as analyte, 1:1 Langmuir fit. As to the method: (§3) The data were generated using BioRad ProteOn instrument in SPR running buffer (PBS, pH 7.4 containing 0.005% Tween 20©). […] The chip was coated with biotinylated target to reach a signal intensity of 1516 RU (human ECD), 257 RU (human NTD), 1500 RU (cyno ECD) and 228 RU (dog NTD). […] Each injection was followed by a regeneration step with 16 mM H₃PO₄ for 18 s. […] The obtained SPR traces were used to determine on-rate and off-rate interaction parameters.

Test [11] concerns the target T2, Cyno DLL3-ECD (extracellular domain of …). As to the kind of experiment: SPR (ProteOn), biotinylated cyno DLL3-ECD on chip, DARPin as analyte, 1:1 Langmuir fit. As to the method: as §3
Test [12] deals with B3. Kind of test: SPR (ProteOn), biotinylated human DLL3-ECD on chip, DARPin as analyte, 1:1 Langmuir fit. As to the method:
as §3

Test [13] deals with T4, Human DLL3-NTD (truncated human DLL3, …). As to the kind of experiment: SPR (ProteOn), biotinylated human DLL3-NTD on chip, DARPin as analyte, 1:1 Langmuir fit. As to the method:
as §3

Test [14] has as its target B3. As to the kind of experiment: SPR (ProteOn), biotinylated human DLL3-ECD on chip, DARPin as analyte, 1:1 Langmuir fit (same values as Table 14). Here is the method:
as §3

T6 sequence (P07724 25-608 limits assumed): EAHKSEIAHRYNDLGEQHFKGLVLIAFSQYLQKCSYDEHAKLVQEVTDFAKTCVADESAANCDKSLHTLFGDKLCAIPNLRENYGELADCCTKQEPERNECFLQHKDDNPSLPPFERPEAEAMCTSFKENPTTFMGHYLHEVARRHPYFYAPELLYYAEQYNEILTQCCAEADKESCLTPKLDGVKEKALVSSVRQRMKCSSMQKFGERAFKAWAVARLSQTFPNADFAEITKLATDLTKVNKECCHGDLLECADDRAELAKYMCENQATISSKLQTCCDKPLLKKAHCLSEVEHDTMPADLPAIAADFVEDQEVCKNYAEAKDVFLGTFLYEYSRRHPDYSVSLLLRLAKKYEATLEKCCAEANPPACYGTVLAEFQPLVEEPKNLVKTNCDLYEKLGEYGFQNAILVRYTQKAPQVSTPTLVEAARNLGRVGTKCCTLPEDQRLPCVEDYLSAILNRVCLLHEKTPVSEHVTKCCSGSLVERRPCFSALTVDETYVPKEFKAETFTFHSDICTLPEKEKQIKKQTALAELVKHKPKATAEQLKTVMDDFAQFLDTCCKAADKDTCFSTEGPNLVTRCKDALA

In the case of B1, the binding result in [1] is “no binding (tested: 500 nM)”.

Take B2: the “fold higher binding affinity than the Low HSA affinity 2D DARPin” value with human serum albumin [2] is around 10 fold. Also, in the test with human serum albumin [3], binding was characterised by a dissociation constant (Kd) of 295 nM; the koff (commonly a measure of how fast the partners let go of each other) was determined as 0.0311 s⁻¹; the on-rate constant (kon) – broadly, a measure of how fast the partners come together – stood at 105000 M⁻¹ s⁻¹. Besides, in the test with mouse serum albumin [4], the Kd – broadly, the constant that tells how readily two partners part at equilibrium – turned out to be 259 nM; the koff amounted to 0.0345 s⁻¹; the kon stood at 133000 M⁻¹ s⁻¹.

In the case of B3, in the test with human serum albumin [5], the binding result is reported as “no binding (tested: 1000 nM)”.

B4: the entries for the “fold lower affinity than to human DLL3-ECD” value in test [6] and in test [7] were around 100 fold and around 10 fold, respectively. The equilibrium dissociation constant (Kd) with human serum albumin [8] was 75.5 nM; with mouse serum albumin [9], 144 nM; in [10], 1.2 nM; in test [11], 22 nM; in [12], 0.174 nM; in test [13], 0.263 nM. The equilibrium dissociation constant (Kd) in test [14] turned out to be 0.174 nM. Moreover, the koff was 0.0216 s⁻¹ with human serum albumin [8]; 0.0383 s⁻¹ in the test with mouse serum albumin [9]; 5.58e-05 s⁻¹ in test [10]; 0.000978 s⁻¹ in test [11]; 1.45e-05 s⁻¹ in test [12]; 1.54e-05 s⁻¹ in [13]. For the same molecule, the dissociation rate constant (koff) in [14] came to 1.45e-05 s⁻¹. Besides, the kon with human serum albumin [8] was 286000 M⁻¹ s⁻¹; in the test with mouse serum albumin [9], 267000 M⁻¹ s⁻¹; in test [10] it was 46400 M⁻¹ s⁻¹; in test [11] it was 44500 M⁻¹ s⁻¹; in test [12], 83500 M⁻¹ s⁻¹; in test [13] it was 58700 M⁻¹ s⁻¹. Besides, in test [14], the kon came to 83500 M⁻¹ s⁻¹.

The values are drawn from US20250332297A1, “DLL3-SPECIFIC BINDING CONSTRUCTS AND THEIR USE IN RADIOTHERAPY” (MOLECULAR PARTNERS AG, priority 2024, published 2025).
